Target: mouse BRCA1 protein (mouse) (UniProt P48754)
Assay: cell-based or functional assay

UniProt P48754, sequence (P48754 whole entry): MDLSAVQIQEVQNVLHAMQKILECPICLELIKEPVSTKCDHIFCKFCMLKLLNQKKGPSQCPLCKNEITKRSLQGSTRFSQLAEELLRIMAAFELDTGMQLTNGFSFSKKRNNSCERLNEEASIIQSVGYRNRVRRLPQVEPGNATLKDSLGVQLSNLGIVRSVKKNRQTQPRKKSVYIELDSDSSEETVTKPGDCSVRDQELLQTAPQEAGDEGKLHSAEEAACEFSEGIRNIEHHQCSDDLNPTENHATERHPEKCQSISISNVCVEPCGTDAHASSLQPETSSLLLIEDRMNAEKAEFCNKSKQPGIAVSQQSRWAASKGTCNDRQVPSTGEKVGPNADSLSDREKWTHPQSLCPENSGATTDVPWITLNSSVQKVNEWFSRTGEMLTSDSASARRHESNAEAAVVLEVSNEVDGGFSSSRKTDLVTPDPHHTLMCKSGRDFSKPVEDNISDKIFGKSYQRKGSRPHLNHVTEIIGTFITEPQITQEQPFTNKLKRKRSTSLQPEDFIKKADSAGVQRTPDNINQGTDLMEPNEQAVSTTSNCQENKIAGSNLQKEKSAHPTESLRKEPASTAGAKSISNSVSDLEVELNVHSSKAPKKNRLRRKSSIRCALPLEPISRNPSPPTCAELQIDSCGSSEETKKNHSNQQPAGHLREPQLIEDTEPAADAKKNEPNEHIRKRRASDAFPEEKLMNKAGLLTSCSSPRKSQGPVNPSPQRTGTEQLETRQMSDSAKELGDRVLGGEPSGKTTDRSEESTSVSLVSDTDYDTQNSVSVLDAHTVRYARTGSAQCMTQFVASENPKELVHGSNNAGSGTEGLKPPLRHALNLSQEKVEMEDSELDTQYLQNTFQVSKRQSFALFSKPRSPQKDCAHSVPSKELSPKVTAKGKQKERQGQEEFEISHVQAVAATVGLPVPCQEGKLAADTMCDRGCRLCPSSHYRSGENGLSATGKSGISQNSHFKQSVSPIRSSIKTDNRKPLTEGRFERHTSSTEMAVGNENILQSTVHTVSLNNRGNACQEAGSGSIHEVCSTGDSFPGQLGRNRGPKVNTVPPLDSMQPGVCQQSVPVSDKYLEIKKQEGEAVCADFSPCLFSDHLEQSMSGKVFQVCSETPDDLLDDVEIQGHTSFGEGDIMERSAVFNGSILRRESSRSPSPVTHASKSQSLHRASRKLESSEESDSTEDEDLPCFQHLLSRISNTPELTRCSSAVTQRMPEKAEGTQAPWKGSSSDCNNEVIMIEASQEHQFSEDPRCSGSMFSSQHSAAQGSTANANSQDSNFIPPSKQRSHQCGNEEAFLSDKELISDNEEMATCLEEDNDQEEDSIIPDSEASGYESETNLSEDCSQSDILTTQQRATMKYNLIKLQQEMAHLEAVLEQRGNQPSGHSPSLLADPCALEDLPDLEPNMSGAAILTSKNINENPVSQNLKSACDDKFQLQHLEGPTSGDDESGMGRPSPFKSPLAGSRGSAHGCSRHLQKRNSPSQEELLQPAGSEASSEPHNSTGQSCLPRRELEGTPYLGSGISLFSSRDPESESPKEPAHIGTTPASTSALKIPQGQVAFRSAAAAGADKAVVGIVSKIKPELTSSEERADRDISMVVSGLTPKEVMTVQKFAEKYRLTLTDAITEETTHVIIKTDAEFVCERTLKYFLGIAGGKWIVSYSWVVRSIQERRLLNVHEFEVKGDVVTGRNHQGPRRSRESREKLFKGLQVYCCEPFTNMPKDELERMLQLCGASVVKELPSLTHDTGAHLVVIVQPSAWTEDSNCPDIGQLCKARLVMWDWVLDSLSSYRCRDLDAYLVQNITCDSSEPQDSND

Question: How did the anti-FANCD2 foci co-localized with regions of intense anti-BRCA1 staining (20 pachytene nuclei of mouse spermatocytes) turn out when “mouse FANCD2 protein (from UniProt Q80V62 1-1450)” was run?
Answer: Its anti-FANCD2 foci co-localized with regions of intense anti-BRCA1 staining (20 pachytene nuclei of mouse spermatocytes) is 65%.

— patent EP1451343B1
